These results are taken from the nanobody polyreactivity screen of Harvey et al. (2022).

The data set in a line: yeast display, Sf9 membrane polyspecificity reagent, FACS + sequencing; frameworks hold sequencing errors. The essentials: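 Nanobodies came from a synthetic yeast display library in Saccharomyces cerevisiae BJ5465, induced with galactose for 36–48 hours and stained for 1 hour at 4 °C with 10% biotinylated, detergent-solubilized Sf9 membrane reagent. Cells were enriched on streptavidin microbeads and then FACS-sorted, with low and high (top ~1%) gates set on anti-HA fluorescence for expression and streptavidin fluorescence for reagent binding. Each polyreactivity label reflects the gate a clone came from. Genes were amplified by colony PCR, sequenced by MiSeq 2 × 250 and filtered by CDR length.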
Consider “QVQLVESGGGLVQAGGSLRLSCAASGRTFKYYAMGWYRQAPGKERELVAAISYNGGSTFYADSVKGRFTISRDNAKNTVYLQMNSLKPEDTAVYYCAAGSRYASELDYWGQGTQVTVSS”, for which the “polyreactivity (PSR sort gate)” value is on record as “high polyreactivity”.

As for “QVHLVESGGGLVQAGGSLLLSCAASGRILGPNAMGWYIQAPGKERELVAAINSGGSTNYADSVKGRFTISRDNAKNTVYLQMNSLKAEDTAVYYCNAVYGVYDFNYWGQGTQVTVSS”, the “polyreactivity (PSR sort gate)” value is listed as “low polyreactivity”. Under “QVQLVESGGGLVQAGGSLRLSCAASGRTFSQYAMGWYRQPPGKERELVASISWSGGSTYYADSVKGRFTISRDNAKNTVYLQMNSLKPEDTAVYYCAAVGKGSARSSYPVLYDYWGQGTQVTVSS” stands “low polyreactivity”. The result for “QVQLVESGGGLVQAGGSLRLSCAASGSIFWRYAMGRYRQAPGKEREVVAAISGSGVRTSYADSVKGRFTISRDNAKNTVYLQMNSLKAEDTAVYYCATDIRSGRYYWGQGTQVTVSS” reads “high polyreactivity”.

Take “QVQLVESGGGLVQAGGSLRLSCAASGSIFTFYAMGWYRQAPGKERELVATINRIGGNTYYADSVKGRFTISRDNAKNTVYLQMNSLKPEDTAVYYCAAKPTYRGYGYGSWGQGTQVTVSS”: the “polyreactivity (PSR sort gate)” value was “low polyreactivity”. Under “QVQLVESGGGLVQAGGSLRLSCAASGSTFVIYAMGLYTQAPGKERELVAAISRRTGSTYYADSVKGRFTISRYNAKNTVYLQMNSLKPEDTAVYYCAADYRYYTKYYGYLTYYYWGQGTQVTVSS” stands “high polyreactivity”; under “QVQLVESWGGLVQAGGSLRLSCAASGRTFAYYAMRWYRQAPGKERELVAAISSGGRTNYADSVKGRFTISRDNAKNTVYLQMNSLKPEDTAVYYCARKASYQIYNGQYGGFGYGYWGQGTQVTVSS”, “high polyreactivity”; under “QVQLQESGGGQVLAGGSLRVSCAASGYIPYSRWMGWNRQAPGKEREFVAGIGYGSSTYYADSVKGRFTISRDNAKNTVYLQMNSLKPEDTAVYYCNASIFFRRNVTQVRMDYWGQGSQVTVSS”, “high polyreactivity”. Regarding “QVQLVESGGGLVQAGGSLRLSCAASGRTFDYYTMGWYRQAPGKERELVAAISRSSGRTYYADSVKGRFTISRDNAKNTVYLQMNSLKPEDTAVYYCAARYYLSVRYGYWGQGTQVTVSS”, the “polyreactivity (PSR sort gate)” value is “high polyreactivity”. The result for “QVQLEESGGGVVQAGGSLRLSCAASGSIFRKYAMGWYRQAPGKERELVATISWNGGRTHYADSVKGRFTISRDNAKNTVYLLMNSLKPEDTAVYYCNKDAASFRHFYGYGYWGQGTQVTVSS” reads “low polyreactivity”. Under “QGQLGESGGGLVQAGGSLRLTCAASGNIFFVYAMGWYRQAPGNEWELVAAITWGGGSTNYADSVKGRFTISRDNAKKTVYLQMNSLKPEDTAVYYCATDNRYVVDSYYWGQGTQVTVSS” stands “high polyreactivity”; under “QVQLVESGGGLVQAGGSLRLSCAASGSIFTYNTMGWYRQAPGKERELVAAISGRGGRTYYADSVKGRFTISRDNAKKTVYLQMNSLKPEDTAVYYCNARKYSQKIYGNYNYWGQGTQVTVSS”, “high polyreactivity”. Under “QVQLVESGGGLVQAGGSLRLSCAASGFIFRTNAMGWYRQAPGKERELVAAITSSGGTTFYADSVKGRFTISRDNAKNTVYLQMNSLKPEDTAVYYCAAAYKHRTRSWTYGYWGQGTQVTVSS” stands “high polyreactivity”; under “QVQLVESGGGLVQAGGSLRLSCAASGIISYLNAMGWYRQAPGKERELVAAITGGGRTNYADSVKGRFTFSRDNAKNTVYLQMNSLKPEDTAVYYCNAYSSNYRYWARRGRPYNYWGQGTQVTVSS”, “high polyreactivity”. In the case of “QVQLVESGGGLVQAGGSLRLSCAASGSTFFPYAMGWYRQAPGKERELVAAIRWSGGRTYYADSVKGRFTISRDNAKNTVYLQMNSLKPEDTAVYYCAADKYLDYDYWGQGTQVTVSS”, the “polyreactivity (PSR sort gate)” value is listed as “high polyreactivity”. The result for “QVQVVESGGCLVQAGGSLRLSCAASGRMFRRYAMGWYRQAPGKERELVAAISSGGSTYYADSVKGRFTISRDNAKNTVYLQMNSLKPEDTAVYYCNAKVGAYLNYGYWGQGTQVTVSS” reads “low polyreactivity”. The result for “QVQLVESGGGLVQAGGSLRLSCAASGSIFVRYAMGGYRQAPGKERELVASIRSRGDSTYYADSVKGRFTISRDNAKNTVYLQMISLKPEDTAVYFFADRRYPPRMDYWGQGTQVTVSS” reads “high polyreactivity”. Consider “QVQLVESGGGLVQAGGSLRLSCAASGRTFPFNTMGWYRQAPGKERELVARISSGGSTYYADSVKGRFRISRDNAKNTVYLQMNSLKPEDTAVYYCATRYRYYSRLYDYWGQGTQVTVSS”, for which the “polyreactivity (PSR sort gate)” value is reported as “high polyreactivity”. With “QVQLVESGGGLVQAGGSLRLSCAPSGSTFNFNAMGWYRQAPGKERELVAAISKSGTRTYYADSVKGRFTISRDNAKNTVYLQMNSLKPEDTAVYYCAAPAISSYDHGYWGQGTQVTVSS”, the “polyreactivity (PSR sort gate)” value is recorded as “high polyreactivity”.

In the case of “QVQLVESGGGLVQAGGSLRLSCAASGRTIRWNAMGGSRPAPGKERELVAAITSRGGSTYYADSVKGRFTISRDNAKNTVYLQMNSLKPEDTAVYYCAAGGRYGDDYWGQGTQVTVSS”, the “polyreactivity (PSR sort gate)” value was “high polyreactivity”. Under “QVQLVQSWRGLVQAGASLRLSCAASGRIFPGYAMGWYREAPGKERELDASSSRTGRTNYADSVKGRFTISRVNAKNTVYLQMNRLKPEYTAVYYCANASPWYFWGYDYWGQGSQVTVSS” stands “low polyreactivity”.

As for “QVQLVESGGGLVQAGGSLRLSCAASGSIFYRYAMGWYRQAPGKERELFATITQSGVSTYYADSVKGRFTISRDNAKNTVFLQRISLKPEDTAVYYCAASYYYTIGPYLRKFDWGQGTQVTVSS”, the “polyreactivity (PSR sort gate)” value was “low polyreactivity”. Under “QVQLVESGGGLVQAGGSLRLSCAASGFTFNAMGWYRQAPGKERELVARIDSDDTTNYADSVKGRFTISRDNAKNTVYLQMNSLKPEDTAVYYCNKDYAWLSYQHYDYWGQGTQVTVSS” stands “low polyreactivity”. The result for “QVQLVESGGGLVQAGGSLRLSCAASGRIIRYYAMGWYRQAPGKETELVAITSSGGRTYYADSVKGRFTISRDNAKNTVYLQMNSLKPEDTAVYYCAVDAHWPGRGERFIRLDYWGQGTQVSVSS” reads “low polyreactivity”.

On to “QVQLVESGGGLVQAGGSLRLSCAASGRIFRGYAMGWSRQAPGKERELVAVISYSGTRTYYADSVKGRFTISRDNAKNTVYLQMNSLKPEDTAVYYCNARANGFKDGYWGQGTQVTVSS”, for which the “polyreactivity (PSR sort gate)” value is given as “high polyreactivity”. Under “QVQLVESGGGLVQAGGSLRLSCAASGLIFPYYTMGWYRQAPGKEGELVAVINRGGSTSYADSVKGRFTISRDNAKNTFYLQMNSLKPEDTAVYYCAARKWRYYSHVIYDYWGQGTQVTVSS” stands “high polyreactivity”. Under “QVQLVESGGGLVQAGGSLRLSCAASGRIIGRYAMGWYRQAPGKERELVAGITIRGGSTYYADSVKGRITISRDNAKNTVYLQMNSLKPEDTAVYYCAADDKGGLAVEYDYWGQGTQVTVSS” stands “low polyreactivity”; under “QVQLVESGGGLVQAGGSLRLSCAASGSIFEPNAKGWYRQAPGKERELVAVINYSGGSTYYADSVKGRFTISRDNAKNTVYLQMNSLKPEDTAVYYCAASHYHYRYGTPQPEYNYWGQGTQVTVSS”, “low polyreactivity”; under “QVQLVESGGGLVQAGGSLRLSCAASGSTFAYYAMGWYRKAPGKERELVAAISSGGSTYYADSVKGRFTISRDNAKNTVYLQMNSLKPEDTAVYYCNKLWVGKFKRYEFGYWGQGTQVTVSS”, “low polyreactivity”. Under “QLQLVESGGGLVQAGGSLRLSCAASGLTFNTYAMGWSRQAPAKERELVAAITKGGGRTYYADSVKGRFTISRDNAKNTVYLQMNSLKPEDTAVYYCAVVSWYRYSRYENDYWGQGTQVTVSS” stands “high polyreactivity”; under “QFQIVESGGGLVQAGGSLRLSCASSGLIFYKYAMGWYRQAPGKERELVARISYTGGITSYADSVKGRFTISRDNAKNTVYLQMNSLKPEDTAVYYCAARYTRPFGPFDYWGQGTQVTVSS”, “low polyreactivity”; under “QVQLVESGGGLVQAGGSLRLSCAASGITFYDYAMGRYRQAPGKERELVAAISGGGITYYADSVKGRFTISRDNAKNTVYLQMNSLKPEDTAVYYCAAVYIAGYGYDYWGQGTQVTVSS”, “low polyreactivity”.

Regarding “QVQLVESGGGLVQAGGSLSLSCAASGSIFLYNAMGWYRPAPGKERELVAAISKSGGSTYYADSVKGRFTISRDNAKNTVYLQMNSLKPEDTAFYYCAAGYGRRIRYGSEYDYWGQGTQVTVSS”, the “polyreactivity (PSR sort gate)” value was “low polyreactivity”. Under “QVQLVESGGGLVQAGGSLRLSCAASGSTFDLNAMGWYRQAPGKERELVARITSSTGRTFYADSVKGRFTISRDNAKNTVYLQMNSLKPEDTAVYYCNTVGHGYSPPVNRSKMDYWGQGTQVTVSS” stands “low polyreactivity”. Under “QVQLVESGGGLVQAGGSLRLSCAASGSIFTSYAMGWYRQAPGKERELVAGISWSVGGITYYADSVKGRFTISRDNAKNTVYLQMNSLKPEDTAVYYCAADPEGGLGTIPEDYWGQGTQVTVSS” stands “low polyreactivity”. The result for “QVQLVESGGGLVQAGGSLRLTCAASGSTFYRNAMGWYRQAPVKERELVATISSSDGSTYYADSVKGRFTISRDNAKNTVYLQMNSLKPEDTAVYYCATEIYYTKTYDSWGQGTQVTVSS” reads “low polyreactivity”. As for “QVQLVESGGGLVQAGGSLRLSCAASGGTFFTNAMGWYRQAPGKERELVAVITGSGGRTYYADSVKGRFTISRDNAKNTVYLQMNSLKPEDTAVYYCAARGYSWGQGTQVTVSS”, the “polyreactivity (PSR sort gate)” value is listed as “high polyreactivity”. Take “QVQLVESGGGLVQAGGSLRLSCAASGSIFRGNAMGWYRQAPGKEREMVAAISVSGSRTYYADSVKGRFTISRDNAKNTVYLQMNSLIPEDTAVYYCNAVLRVKGSGDFDYWGEGTQVTVSS”: the “polyreactivity (PSR sort gate)” value is listed as “high polyreactivity”. The result for “QVQLVESGGGLVQAGGSLRLSCAASGRIFTHNAMGWYRQAPGKERELVAAISYSGVSTYYADSVKGRFTISRDNAKNTVYLQMNSLKPEDTAVYYCAARSRSWRQRYGDFDYWGQGTQVTVSS” reads “low polyreactivity”. Turning to “QVQLVESGGGLVKEGGSLRLSCAASGNTIRVNAMGWYRQAPGKERELVAAISFSGGRTYYADSVKGRFTISRDNAKNTVYFQMNSLKPEDTGVYYCAALRRYPRPFIYGYWGQVTQVTVSS”, the “polyreactivity (PSR sort gate)” value is on record as “low polyreactivity”. In the case of “QVQLVESGGGLVQAGGSLRLSCAASGSIIGYYAMGWYRQAPGKECEFVAAITRSGARTYYADSLKGRFTISRDNAKNTVYLQMNSLKPEDTAVYYCAAGAYYRYTIEYDYWGQGTQVTVSS”, the “polyreactivity (PSR sort gate)” value was “high polyreactivity”.
